Consider one protein from article PMC9797636, “Transcriptomic and enzymatic analysis reveals the roles of glutamate dehydrogenase in Corynebacterium glutamicum” (AMB Express, 2022).

Holding throughout (test): purified protein
Common to all, as to format: biochemical, Corynebacterium glutamicum

Substrate in data set [1]: O=C(O)CCC(=O)C(=O)O
To be noted: reductive amination, NADPH, NH4Cl, Tris-HCl pH 7.0, 25 °C, pH 7.0.

Substrate in data set [2]: NC(=O)C1=CN([C@@H]2O[C@H](COP(=O)(O)OP(=O)(O)OC[C@H]3O[C@@H](n4cnc5c(N)ncnc54)[C@H](OP(=O)(O)O)[C@@H]3O)[C@@H](O)[C@H]2O)C=CC1
To be noted: reductive amination, 2-oxoglutarate, NH4Cl, Tris-HCl pH 7.0, 25 °C, pH 7.0.

Substrate in data set [3]: NC(=O)c1ccc[n+]([C@@H]2O[C@H](COP(=O)(O)OP(=O)(O)OC[C@H]3O[C@@H](n4cnc5c(N)ncnc54)[C@H](OP(=O)(O)O)[C@@H]3O)[C@@H](O)[C@H]2O)c1
To be noted: oxidative deamination, L-glutamate, Tris-HCl, 25 °C.

B1: GdhA (Corynebacterium glutamicum ATCC 13032) (protein)
chain: MTVDEQVSNYYDMLLKRNAGEPEFHQAVAEVLESLKIVLEKDPHYADYGLIQRLCEPERQLIFRVPWVDDQGQVHVNRGFRVQFNSALGPYKGGLRFHPSVNLGIVKFLGFEQIFKNSLTGLPIGGGKGGSDFDPKGKSDLEIMRFCQSFMTELHRHIGEYRDVPAGDIGVGGREIGYLFGHYRRMANQHESGVLTGKGLTWGGSLVRTEATGYGCVYFVSEMIKAKGESISGQKIIVSGSGNVATYAIEKAQELGATVIGFSDSSGWVHTPNGVDVAKLREIKEVRRARVSVYADEVEGATYHTDGSIWDLKCDIALPCATQNELNGENAKTLADNGCRFVAEGANMPSTPEAVEVFRERDIRFGPGKAANAGGVATSALEMQQNASRDSWSFEYTDERLQVIMKNIFKTCAETAAEYGHENDYVVGANIAGFKKVADAMLAQGVI
By Km is commonly meant the substrate concentration at which the rate is half of its maximum. Usually Vmax stands for the top rate of the reaction or transport when substrate is in excess. As usually defined, the kcat is the number of substrate molecules converted per active site and unit of time at saturation. As a reminder, the kcat/Km is the turnover number divided by the Michaelis constant. As for B1, in data set [1], the Km was determined as 2534 µM, the Vmax was determined as 0.809 µmol/min/mg, the kcat came to 0.135 s⁻¹ and the kcat/Km is 53.2 M⁻¹ s⁻¹. Moreover, in data set [2], the Km was determined as 166 µM, the Vmax was 1.54 µmol/min/mg, the kcat worked out at 0.257 s⁻¹ and the kcat/Km was determined as 1540 M⁻¹ s⁻¹. Further, in data set [3], the Km came out at 505 µM, the Vmax is 1.34 µmol/min/mg, the kcat stood at 0.224 s⁻¹ and the kcat/Km was determined as 443 M⁻¹ s⁻¹.
